Assay results: US20260184809A1 (Genmab, published 2026)

T1: recombinant cynomolgus monkey EpCAM (R&D systems, cat no. 10451-EP) (cynomolgus monkey, UniProt Q1WER1 24-265 (rhesus entry))
T1 construct: also called cynomolgus monkey EpCAM extracellular domain
T1 sequence: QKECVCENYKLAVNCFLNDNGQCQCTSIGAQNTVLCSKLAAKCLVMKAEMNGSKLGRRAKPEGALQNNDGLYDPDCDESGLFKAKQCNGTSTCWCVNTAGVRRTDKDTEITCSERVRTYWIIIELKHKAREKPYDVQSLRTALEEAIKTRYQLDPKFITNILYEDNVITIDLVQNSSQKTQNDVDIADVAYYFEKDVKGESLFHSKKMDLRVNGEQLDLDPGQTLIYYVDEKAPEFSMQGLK

B1: BisG2amm-EpCAM-323-A3-AALT/m4-1BB-3H3-AAKR (bispecific antibody, mouse IgG2a, kappa)
heavy 1: QIQLVQSGPELKKPGETVKISCKASGYTFTNYGMNWVRQASGEGLKWMGWINTYTGEPTYGEDFKGRFAFSLETSASTAYLQINNLKNEDTATYFCARFGNYVDYWGQGTTLTVSSAKTTAPSVYPLAPVCGDTTGSSVTLGCLVKGYFPEPVTLTWNSGSLSSGVHTFPAVLQSDLYTLSSSVTVTSSTWPSQSITCNVAHPASSTKVDKKIEPRGPTIKPCPPCKCPAPNAAGGPSVFIFPPKIKDVLMISLSPMVTCVVVDVSEDDPDVQISWFVNNVEVLTAQTQTHREDYNSTLRVVSALPIQHQDWMSGKEFKCKVNNKALPAPIERTISKPKGSVRAPQVYVLPPPEEEMTKKQVTLTCMVTDFMPEDIYVEWTNNGKTELNYKNTEPVLDSDGSYLMYSKLTVEKKNWVERNSYSCSVVHEGLHNHHTTKSFSRTPG
light 1: DIVMTQAAFSNPVTLGTSASISCRSSKNLLHSNGITYLYWYLQKPGQSPHLLIYQMSNLASGVPDRFSSSGSGTDFTLRISRVEAEDVGVYYCAQNLEIPRTFGGGTKLEIKRADAAPTVSIFPPSSEQLTSGGASVVCFLNNFYPKDINVKWKIDGSERQNGVLNSWTDQDSKDSTYSMSSTLTLTKDEYERHNSYTCEATHKTSTSPIVKSFNRNEC
heavy 2: EMQLVESGGGLVQPGRSMKLSCAGSGFTLSDYGVAWVRQAPKKGLEWVAYISYAGGTTYYRESVKGRFTISRDNAKSTLYLQMDSLRSEDTATYYCTIDGYGGYSGSHWYFDFWGPGTMVTVSSAKTTAPSVYPLAPVCGDTTGSSVTLGCLVKGYFPEPVTLTWNSGSLSSGVHTFPAVLQSDLYTLSSSVTVTSSTWPSQSITCNVAHPASSTKVDKKIEPRGPTIKPCPPCKCPAPNAAGGPSVFIFPPKIKDVLMISLSPMVTCVVVDVSEDDPDVQISWFVNNVEVLTAQTQTHREDYNSTLRVVSALPIQHQDWMSGKEFKCKVNNKALPAPIERTISKPKGSVRAPQVYVLPPPEEEMTKKQVTLTCMVKDFMPEDIYVEWTNNGKTELNYKNTEPVLDSDGSYFMYSRLRVEKKNWVERNSYSCSVVHEGLHNHHTTKSFSRTPG
light 2: DIQMTQSPSLLSASVGDRVTLNCRTSQNVYKNLAWYQQKLGEAPKLLIYNANSLQAGIPSRFSGSGSGTDFTLTISSLQPEDVATYFCQQYYSGNTFGAGTNLELKRADAAPTVSIFPPSSEQLTSGGASVVCFLNNFYPKDINVKWKIDGSERQNGVLNSWTDQDSKDSTYSMSSTLTLTKDEYERHNSYTCEATHKTSTSPIVKSFNRNEC
notes: also called BsIgG2amm-EpCAM-323-A3-AALT/m4-1BB-3H3-AAKR; BisIgG2amm-EpCAM-323-A3-AALT/m4-1BB-3H3-AAKR
B2: IgG1-b12 (wild-type Fc) (antibody)
heavy: not shown
light: EIVLTQSPGTLSLSPGERATFSCRSSHSIRSRRVAWYQHKPGQAPRLVIHGVSNRASGISDRFSGSGSGTDFTLTITRVEPEDFALYYCQVYGASSYTFGQGTKLERKRTVAAPSVFIFPPSDEQLKSGTASVVCLLNNFYPREAKVQWKVDNALQSGNSQESVTEQDSKDSTYSLSSTLTLSKADYEKHKVYACEVTHQGLSSPVTKSFNRGEC

Legend:
[1] = target: T1, recombinant cynomolgus monkey EpCAM …; assay: BLI (Octet HTX); recombinant cynomolgus monkey EpCAM on anti-Penta-HIS sensors, antibody 1.56-100 nM in solution
[2] = target: FcγRIa (CD64 Protein, Human, Recombinant (His Tag), Biotinylated; SinoBiological 10256-H08S-B) (human, UniProt P12314 16-288); assay: SPR (Biacore 8K), His-tagged FcγR captured on anti-His chip, antibody as analyte, endpoint response against concentration
[3] = target: T2, His-tagged FcRn (SinoBiological, cat. no. CT009-H08H-B) (UniProt P55899 24-297; P61769 21-119); assay: SPR kinetics at pH 6.0; His-tagged FcRn captured, antibody 0-100 nM as analyte; mean
T2 construct: also called neonatal Fc receptor

[4] = target: T2, His-tagged FcRn (SinoBiological, cat. …); assay: SPR kinetics at pH 6.0; His-tagged FcRn captured, antibody 0-100 nM as analyte

T2 sequence (P55899 24-297 limits assumed, form in doubt, chain 1 of 2): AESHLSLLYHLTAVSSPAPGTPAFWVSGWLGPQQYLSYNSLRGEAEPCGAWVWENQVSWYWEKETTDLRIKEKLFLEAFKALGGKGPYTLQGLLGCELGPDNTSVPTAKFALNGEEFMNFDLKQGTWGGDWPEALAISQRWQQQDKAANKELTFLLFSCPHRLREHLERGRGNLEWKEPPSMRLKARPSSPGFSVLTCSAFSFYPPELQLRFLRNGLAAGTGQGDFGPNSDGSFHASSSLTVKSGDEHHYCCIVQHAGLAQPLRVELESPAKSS
T2 sequence (P61769 21-119 limits assumed, form in doubt, chain 2 of 2): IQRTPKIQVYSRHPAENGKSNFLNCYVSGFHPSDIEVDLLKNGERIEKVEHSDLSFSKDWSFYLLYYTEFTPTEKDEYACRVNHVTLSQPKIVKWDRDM
FcγRIa (CD64 Protein, Human, Recombinant (His Tag), Biotinylated; SinoBiological 10256-H08S-B), sequence (P12314 16-288 limits assumed, stated change not applied): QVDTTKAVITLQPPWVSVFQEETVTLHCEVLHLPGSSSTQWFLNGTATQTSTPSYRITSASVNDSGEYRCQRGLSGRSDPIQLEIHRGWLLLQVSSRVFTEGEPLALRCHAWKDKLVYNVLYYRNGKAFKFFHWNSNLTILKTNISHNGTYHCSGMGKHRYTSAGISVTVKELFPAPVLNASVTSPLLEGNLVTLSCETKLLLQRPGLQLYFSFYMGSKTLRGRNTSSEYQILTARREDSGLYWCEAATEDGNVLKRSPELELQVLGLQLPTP

Binder | Response [1] | EC50 (read off the curve) [2] | Kd [3] | koff [4] | kon [4]
B1 | 0.02 nm | – | – | – | –
B2 | – | ~50 nM | 29 nM | 0.0322 s⁻¹ | 1.1e+06 M⁻¹ s⁻¹
